Consider nine molecules from patent publication CN117990807A (BEIJING DONGFANG BIOTECH CO LTD; BEIJING JINGYI TAIXIANG …, dated 2024).

Sequences and labels used below:
T1: 鼠TSLP-His (mouse, UniProt Q9JIE6 20-140)
T1 construct: Bought protein; also called TSLP(Mouse); not shown: His tag
T1 sequence (looked up): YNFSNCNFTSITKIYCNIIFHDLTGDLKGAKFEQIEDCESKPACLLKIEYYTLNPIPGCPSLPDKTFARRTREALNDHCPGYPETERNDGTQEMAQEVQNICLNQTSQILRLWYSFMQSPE

B1: 人源化抗TSLP单克隆抗体HA-Ⅱ (antibody, human IgG1, kappa, L234A L235A, V domains shown)
VH: QVQLVQSGAEVKKPGASVKVSCKASGYTFTSYWMHWVRQAPGQGLEWIGLIDPSDSDTTYNQKFKGRATLTVDTSTSTAYMELSSLRSEDTAVYYCSRSLDGYFDHWGQGTLVTVSS
VL: DIVMTQSPSSLSASVGDRVTITCRASENIYSYLAWYQQKPGKAPKLLVYNARTLAEGVPSRFSGSGSGTDFTLTISSLQPEDFATYYCQHHYGTPWTFGGGTKVEIKR
notes: Humanized from MA-Ⅰ
B2: 人源化抗TSLP单克隆抗体HA-Ⅲ (antibody, human IgG1, kappa, L234A L235A)
heavy: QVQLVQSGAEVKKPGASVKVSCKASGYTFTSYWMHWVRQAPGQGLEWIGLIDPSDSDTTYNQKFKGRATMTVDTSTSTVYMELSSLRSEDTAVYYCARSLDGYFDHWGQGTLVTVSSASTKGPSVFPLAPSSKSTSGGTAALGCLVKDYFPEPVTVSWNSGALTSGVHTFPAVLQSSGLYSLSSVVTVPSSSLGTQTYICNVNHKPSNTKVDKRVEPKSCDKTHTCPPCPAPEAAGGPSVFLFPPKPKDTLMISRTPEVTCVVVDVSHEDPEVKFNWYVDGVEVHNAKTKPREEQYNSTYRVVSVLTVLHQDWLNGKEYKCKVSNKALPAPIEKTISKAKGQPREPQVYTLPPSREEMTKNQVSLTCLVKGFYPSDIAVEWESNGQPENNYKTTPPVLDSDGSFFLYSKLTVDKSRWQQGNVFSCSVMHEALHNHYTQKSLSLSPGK
light: DIQMTQSPSSLSASVGDRVTITCRASENIYSYLAWYQQKPGKAPKLLVYNARTLAEGVPSRFSGSGSGTDFTLTISSLQPEDFATYYCQHHYGTPWTFGGGTKVEIKRTVAAPSVFIFPPSDEQLKSGTASVVCLLNNFYPREAKVQWKVDNALQSGNSQESVTEQDSKDSTYSLSSTLTLSKADYEKHKVYACEVTHQGLSSPVTKSFNRGEC
notes: Humanized from MA-Ⅰ
B3: 人源化抗TSLP单克隆抗体HA-Ⅳ (antibody, human IgG1, kappa, L234A L235A)
heavy: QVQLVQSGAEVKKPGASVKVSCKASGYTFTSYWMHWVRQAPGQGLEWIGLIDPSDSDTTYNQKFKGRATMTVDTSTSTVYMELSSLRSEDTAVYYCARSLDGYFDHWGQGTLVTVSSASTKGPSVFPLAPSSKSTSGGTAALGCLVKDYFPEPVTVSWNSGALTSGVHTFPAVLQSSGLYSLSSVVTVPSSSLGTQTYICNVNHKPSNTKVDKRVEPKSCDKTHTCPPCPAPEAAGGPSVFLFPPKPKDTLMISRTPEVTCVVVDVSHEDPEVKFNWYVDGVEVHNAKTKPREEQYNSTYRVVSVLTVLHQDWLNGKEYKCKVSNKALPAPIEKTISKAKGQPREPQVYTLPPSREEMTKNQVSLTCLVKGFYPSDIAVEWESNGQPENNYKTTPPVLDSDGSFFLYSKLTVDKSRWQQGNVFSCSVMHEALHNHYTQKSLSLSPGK
light: B2 light with Q3V
notes: Humanized from MA-Ⅰ
B4: 人源化抗TSLP单克隆抗体HA-Ⅰ (antibody, human IgG1, kappa, L234A L235A, V domains shown)
VH: B1 VH
VL: B1 VL with A43S
notes: Humanized from MA-Ⅰ; also called HA-1
B5: MA-Ⅲ鼠源抗TSLP单克隆抗体 (murine IgG1/Ck) (antibody, V domains shown)
VH: QVQLQQPGAELVKPGASVKMSCKASGYTFTSYWMHWVKQRPGQGLEWIGVIDPSDSDTTYNQKFKGKATLTVDTSSSTVYMQLSSLTSEDSAVYYCTRSLDGYFDHWGQGTLVTVSA
VL: DIVMTQSPASLSASVGETVTITCRASGNIHNYLAWYQQKQGKSPQLLVYNAKTLADGVPSRFSGSGSGTQYSLKINSLQPEDFGSYYCQHFWSTPWTFGGGTKLEIKA
B6: MA-Ⅳ鼠源抗TSLP单克隆抗体 (murine IgG1/Ck) (antibody, V domains shown)
VH: B5 VH with Q3K, Q5E, P7S, V79A
VL: B5 VL with M4I, S7T, A51T, W96Y
B7: MA-Ⅰ鼠源抗TSLP单克隆抗体 (murine IgG1/Ck) (antibody)
heavy: QVQLEQSGAELVKPGASVKMSCKASGYTFTSYWMHWVKQRPGQGLEWIGLIDPSDSDTTYNQKFKGKATLTVDTSSSTAYMQLGSLTSEDSAVYYCSRSLDGYFDHWGQGTLVTVSAAKTTPPSVYPLAPGSAAQTNSMVTLGCLVKGYFPEPVTVTWNSGSLSSGVHTFPAVLQSDLYTLSSSVTVPSSTWPSETVTCNVAHPASSTKVDKKIVPRDCGCKPCICTVPEVSSVFIFPPKPKDVLTITLTPKVTCVVVDISKDDPEVQFSWFVDDVEVHTAQTQPREEQFNSTFRSVSELPIMHQDWLNGKEFKCRVNSAAFPAPIEKTISKTKGRPKAPQVYTIPPPKEQMAKDKVSLTCMITDFFPEDITVEWQWNGQPAENYKNTQPIMDTDGSYFVYSKLNVQKSNWEAGNTFTCSVLHEGLHNHHTEKSLSHSPG
light: DIVMTQSPASLSASVGETVTITCRASENIYSYLAWYQQKQGKSPQLLVYNARTLAEGVPSRFSGSGSGTQFSLKINSLQPEDFGSFYCQHHYGTPWTFGGGTKLEIKADAAPTVSIFPPSSEQLTSGGASVVCFLNNFYPKDINVKWKIDGSERQNGVLNSWTDQDSKDSTYSMSSTLTLTKDEYERHNSYTCEATHKTSTSPIVKSFNRNEC
notes: also called MA-I
B8: MA-Ⅱ鼠源抗TSLP单克隆抗体 (murine IgG1/Ck) (antibody, V domains shown)
VH: B5 VH with Q3K, P7S, S31T, D57Y, T58I, V79A, H106Y
VL: B5 VL with M4L, G27E, H30Y, N31S, D56E, Y71F, F91H, W92Y, S93G
B9: 嵌合抗体CA-Ⅰ (antibody, human IgG1, kappa, L234A L235A)
heavy: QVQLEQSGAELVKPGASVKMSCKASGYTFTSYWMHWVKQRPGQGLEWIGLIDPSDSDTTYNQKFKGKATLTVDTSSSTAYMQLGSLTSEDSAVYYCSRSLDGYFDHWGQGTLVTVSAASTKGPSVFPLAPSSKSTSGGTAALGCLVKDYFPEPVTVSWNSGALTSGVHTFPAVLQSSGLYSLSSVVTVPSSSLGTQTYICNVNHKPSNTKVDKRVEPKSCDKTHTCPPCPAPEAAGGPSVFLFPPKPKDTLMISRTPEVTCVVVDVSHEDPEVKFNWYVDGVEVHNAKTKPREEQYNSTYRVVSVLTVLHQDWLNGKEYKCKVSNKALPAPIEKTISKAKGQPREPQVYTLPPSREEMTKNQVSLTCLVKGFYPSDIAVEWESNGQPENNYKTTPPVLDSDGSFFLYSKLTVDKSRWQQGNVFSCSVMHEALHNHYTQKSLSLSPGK
light: DIVMTQSPASLSASVGETVTITCRASENIYSYLAWYQQKQGKSPQLLVYNARTLAEGVPSRFSGSGSGTQFSLKINSLQPEDFGSFYCQHHYGTPWTFGGGTKLEIKRTVAAPSVFIFPPSDEQLKSGTASVVCLLNNFYPREAKVQWKVDNALQSGNSQESVTEQDSKDSTYSLSSTLTLSKADYEKHKVYACEVTHQGLSSPVTKSFNRGEC
notes: also called chimeric antibody CA-I

Positions count from the first letter of the chain named.

For the first assay, the target named is T1, 鼠TSLP-His. The assay is described as follows: ELISA, mouse TSLP-His coated.
For B1, the binding result is “no binding (tested: 16μg/ml)”.

For the molecule B2, the binding result is given as “no binding (tested: 16μg/ml)”. Turning to B3, the binding result is “no binding (tested: 16μg/ml)”. On the same count and under the same terms, as for B4, the entry is “no binding (tested: 16μg/ml)”.

The target in a further assay is T2, TSLP (人TSLP, thymic stromal lymphopoietin) (human, UniProt Q969D9 29-159, limits assumed).
T2 construct: also called TSLP抗原; 抗原TSLP
The assay is described as follows: ELISA, TSLP coated, goat anti-mouse IgG-HRP.
B5 returned an EC50 of 0.00198 µg/mL. Same read-out and setting: as for B6, the figure is 0.00557 µg/mL; as for B7, 0.0011 µg/mL. On the same count and under the same terms, in the case of B8 it was 0.00204 µg/mL.

The target of a further assay is T3, 人TSLP-His (human, UniProt Q969D9 29-159, limits assumed).
T3 construct: also called TSLP(Human); not shown: His tag
The assay is described as follows: ELISA, TSLP-His coated, goat anti-human IgG-HRP. On the technique in general: ELISA stands for enzyme-linked immunosorbent assay.
Molecule B9 yielded an EC50 of 0.0131 µg/mL.

Another assay deals with T4, 猴TSLP-His (食蟹猴TSLP) (cynomolgus monkey, UniProt A0A7N9CAT7 29-159).
T4 construct: Bought protein; also called TSLP(Cynomolgus); not shown: His tag
T4 sequence (A0A7N9CAT7 entry or part of it): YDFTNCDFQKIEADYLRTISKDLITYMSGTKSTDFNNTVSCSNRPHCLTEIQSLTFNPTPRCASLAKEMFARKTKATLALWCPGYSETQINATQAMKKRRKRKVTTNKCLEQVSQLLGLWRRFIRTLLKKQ
The assay is described as follows: ELISA, cynomolgus TSLP-His coated, goat anti-human IgG-HRP.
B1 displayed an EC50 of 0.0508 µg/mL. The same measure, in the same setting: as for B2, the figure is 0.0892 µg/mL. Still for that read-out and setting: as for B3, the figure is 0.0508 µg/mL. The same measure, in the same setting: in the case of B4 it was 0.0273 µg/mL.

Another assay has as its target T3, 人TSLP-His. The assay is described as follows: competition ELISA: CRLF2-Fc coated, TSLP-His 10μg/ml plus antibody dilutions, anti-His-HRP.
In the case of B5, the IC50 was found to be 2.4 µg/mL. Same read-out and setting: in the case of B6 it was 11.8 µg/mL; in that of B7, 1.52 µg/mL; in that of B8, 15.6 µg/mL.

Usually EC50 stands for the concentration needed to bring the measured effect to its halfway point. Read a high EC50 as a less potent agent. The IC50 is the concentration at which inhibition is half-maximal.
